In the experiment the target is human recombinant adrenomedullin receptor (CRLR+RAMP3) (Homo sapiens).

Usually EC50 (read off the curve) stands for the concentration giving half of the maximal effect.

“human Adrenomedullin (hADM 1-52) (peptide)”: the 50% effective concentration (EC50 (read off the curve)) stood at 1 nM.
